Where only a bound is given, the exact number is not on record here.

This data set deals with Saccharomyces cerevisiae. Put plainly: transcriptional activation domain activity (GFP:mCherry ratio, weighted mean of sorted bins, harmonized to initial dataset scale) (arbitrary fluorescence ratio units); higher = stronger transcriptional activation. As to conditions: beta-estradiol 1 µM; induction time 4 h. A digest of the protocol: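 Each value is an activation activity: the read-weighted mean of bin median fluorescence, averaged across barcodes, then mapped linearly to the initial dataset scale. The tiles, fused to an estradiol-inducible synthetic transcription factor, sat at the yeast URA3 locus in GFP-reporter diploids. Cells spent 4 hours at 30 °C in SC with 1 uM beta-estradiol before sorting into 8 GFP:mCherry bins, and tiles below 50 reads were removed.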

“DDADGKARSRRKDYSDDERGDTRRSRRDEHRSSKEHRSRTVKEGENDRRKAHR”: the “transcriptional activation domain activity” value is below 6570.

For “LNCLDLSGIDCCLFFMALRLEVLYSWFLFLAWQLLCTHPALLAFAFGFLGFLI”, the “transcriptional activation domain activity” value turned out to be 51600.

For the sequence “MWCTRWYIPLLLLPIPTAPPYFLILFLFSLTLHARPCFYCILLLLTLFLSSCY”, the “transcriptional activation domain activity” value is 58500.

As for “ARTSDYSIAQWRFLTKLLLVHGRWNYNRICKYIVGTFWKEIVFYLTQALYQRY”, the “transcriptional activation domain activity” value worked out at 45400.

Consider “AIGISGYVLPCLYRLALLVLNTTPNQPLDALLSFSHYTLQNSALAHFLPLFVN”, for which the “transcriptional activation domain activity” value was found to be 53400.

Regarding “QKPEAAANATAVGEKKEVEEELKKVVEAKPEGKTEAGPAKEEGKAAEAAPAKA”, the “transcriptional activation domain activity” value was found to be 52800.

Regarding “INPFFGFLPFFFFFLPHLLLHYLALFFYYYFWFVFFSVPYSCPLVFYLLVFFL”, the “transcriptional activation domain activity” value is 55200.

With “LLIFVLFYYNCMKILYGIFGFIILGVLGLFGYYISSMLLWLYNVPFDYISFFF”, the “transcriptional activation domain activity” value was 68500.

Take “MGVLLFGFWVCCCTKLLFCHYCFFFFLFLHFFFLATVLYIVNCCMLLLVLLLG”: the “transcriptional activation domain activity” value worked out at 67700.

With “QCIFVLLVLLMRRHLAKMHLCLKQEIDWRELDDDRDTVTWVVAAVWQRFIDLK”, the “transcriptional activation domain activity” value amounted to 61000.

Regarding “LLFQSGVLRGYGGLLGFWIYLLLSSSFLLHLFYCCYIVLYLFVFVSWLLACLL”, the “transcriptional activation domain activity” value was 51700.

Consider “YADWLLEPEQNNGTWVSDVLWPAINLDLQWISLHWNESSWDLWWPPVWGGSYW”, for which the “transcriptional activation domain activity” value came to 52100.

For the sequence “ALIHLPRPQNELVLTLIIRWLVRTTSPLGVIRAAQTHIGAIGYPDVWPTVLFF”, the “transcriptional activation domain activity” value amounted to 68900.

“FLHLATLKEKMGNRFRAKQSDISPEINLVLLGVLTLTVRFNPTLVSYVTTLRT”: the “transcriptional activation domain activity” value stood at 50600.

As to “EALPDDLYFTDFVSPFTAAATTSVTTKTVKDTTPATNHMDDDIAMFDSLATTQ”, the “transcriptional activation domain activity” value amounted to 47700.

Consider “SHPDIMDAAVIGVEGEGTEVPRAYVVADRKKVNEKKVQEWVKGRTARNKRLRG”, for which the “transcriptional activation domain activity” value was determined as 25900.

For “EVLITKKPAKQTRGKKAPTAAVNKAEIEEGQDDVNFANVGRGRKRAVAKKVVE”, the “transcriptional activation domain activity” value turned out to be 25700.

Consider “KVDNGRKVDNGGKVDGRKVDNGGKVDDGRSVNDRGRADKGGGVVKGGRLVEGG”, for which the “transcriptional activation domain activity” value worked out at 24900.

With “PFGICGSFLGLFFCVMGLIAHMPSIWLVRGGNHSYTSLPGNSWLCVIFCLFSC”, the “transcriptional activation domain activity” value came out at 49200.

With “GRWSYLRTSEMILTFFYKNIMWTLVLFWYQLMCSFTGTMMFDYSYITLYNLVF”, the “transcriptional activation domain activity” value was found to be 63400.

With “LFTSLLTSPFLFSLPLLSISASSFLIPPSPFHSLFLPLSLPFPLLYPFPSLFF”, the “transcriptional activation domain activity” value came to 49800.

Turning to “LALVIDVRFPKHPTMSNYSLVCAVRALLDFVELARYPVHTDATLRLLNDALRV”, the “transcriptional activation domain activity” value worked out at 51200.

“AINFWFFLTVYYGFYNLVGLLWITKIFNMYSLNWWPPQLGFPPTFTFFSCFPL”: the “transcriptional activation domain activity” value is 51500.

Turning to “MSLFMLRTLPSFVCSSFCAMLHFCCSYSLLFYYWALSLPRWLPIPSGFIPIAF”, the “transcriptional activation domain activity” value came out at 60200.

“MKKKKGEGMKKERRRRGGEGGGKGALRREKKGTGTGKDGEREKQEKGEEGKCN”: the “transcriptional activation domain activity” value was determined as 29900.

Regarding “KIHLVNLAQVSVFFIHRVLYGIIPLFEIKTCAYFPLLVSLWHMTYILFYIVMF”, the “transcriptional activation domain activity” value worked out at 71200.

As to “MDIYGSCICPGGLALGEFFYFLFFLVLSSYYYYFLFSFLFLFSLFLSFVVWRF”, the “transcriptional activation domain activity” value was determined as 49700.

“RDGMRQGTHSTKGRADVRGSTRKAAPQKGRGRARMGSLRAPHIRGGGIAFGPK”: the “transcriptional activation domain activity” value is 24000.

“VSYVSYVLLFIPFFMLRVFYLSIVTFFLCHIWLHRFGFLVWLWILWCTWGWCN”: the “transcriptional activation domain activity” value worked out at 54800.

As to “EAANGDDAEPAAEQNGADIQTAAASPAESTKKDNKKKDKKRSREEEGANGAAA”, the “transcriptional activation domain activity” value came out at 39500.

On to “MSTSSIVMCSLFLIVRTSTFLLTFIFPNSLPLMGYRLRVFFVWYVDFYGWIFT”, for which the “transcriptional activation domain activity” value stood at 57600.

Consider “SHYALCVNMHAYWHSNPHFGSEHRWLGFPPFYHVFGLSYILLLAPCLGATVCV”, for which the “transcriptional activation domain activity” value turned out to be 61100.

Consider “GLDCDKQHVRECPDFAERGTCATRGCKLPHVIRANRNRKAPAPAAQKSTSTST”, for which the “transcriptional activation domain activity” value was 25500.

Regarding “GRTLSRYEPTNVCVVLILIWLGIYHYFLQVLQVRTHATARKIVLLYGWYTLRI”, the “transcriptional activation domain activity” value came out at 53400.

Take “MQWAGLMFFRCSICLLAFSVILMFGLVWYFFALCVVNRLSTICFVFWMLLSFL”: the “transcriptional activation domain activity” value was 42700.

Turning to “HTKSTESLVQLDDADGSRLDKVSGSLIQSLLASLGAQHKLVADAALTFLTAGR”, the “transcriptional activation domain activity” value turned out to be 43900.

For “MMGLSLGFKCCFQMLSLFSILFSFHLVLRLLSFPFFSCSYCILYRFLFFCWGW”, the “transcriptional activation domain activity” value came to 24500.

On to “RSSSKKKDASDDEDKHSRRKSSSRKKGSDEEDDKSRHSRSASASKKKDKKSYD”, for which the “transcriptional activation domain activity” value is 14300.

As to “VLGCAKIGVVLLSLWHMFHFAHYINVSPTEIFCISPVLGSWSWETLCFMMTVV”, the “transcriptional activation domain activity” value was determined as 49600.

Consider “GDFESKCYLFEPSELRFPPHVFSLTNGRLYRRWYFLDLQSGMLFRFFYICDWR”, for which the “transcriptional activation domain activity” value was found to be 32700.

Consider “PKPAPAAAAAPAPAAAPPAAAPAPEPKKYAPPPARPAPAPAAAPVAAAAAAAP”, for which the “transcriptional activation domain activity” value was found to be 9320.

Take “MKRVYKLNTCLFFYNSYNPFHIYFYSFIHSNMPAMYHLFSILLLWLNCLSLVQ”: the “transcriptional activation domain activity” value is 44500.

Consider “RSLLWQLSVWSFIKLMILMLFGYRMEAISILGREVMLPRGLIGLGYDSIDHCG”, for which the “transcriptional activation domain activity” value amounted to 47800.

Regarding “GPDPFQQLSSAEHPNNHSSDDEHSGSQPLPLDSITIGIPPTLHTIPMILSKDN”, the “transcriptional activation domain activity” value turned out to be 62900.

For “MKFLPFRFADLQANNFILFYFLYLMLACYLYPICIYTGKLFVIFPFIFLFFVP”, the “transcriptional activation domain activity” value is 55000.

“GSTHPRQVFDQLDDCSSILFSPLTTNTNNEFEGESDDFVHSPYLNSEADFSQI”: the “transcriptional activation domain activity” value came out at 75200.

As to “EREERRRQERAKEEAEGGNRRGKKNKGEAGGGKRGRGKRPRRGRRKGQRARGG”, the “transcriptional activation domain activity” value amounted to 34400.

On to “KQGQEVEFKPERGVGDLVLKVTGRKRGYRAEERRSNSLRAQLVISHAVPLAVT”, for which the “transcriptional activation domain activity” value turned out to be 60200.

As for “MAGQNNPFVGAVFSGLFLGYMILAAALSIFFLLYFNRVFASIVSWGIRAWTWR”, the “transcriptional activation domain activity” value was determined as 31200.

Take “VRVVVANMFGLVIIFLFFFMYFDDFSKEILNAVQVSQIWMYLHFPLHLCQVAF”: the “transcriptional activation domain activity” value turned out to be 50400.

On to “APAPIAAEPAPAPAVETPAPAPAPATEEKKEEAAAPAVEATPAPAAAPAAATT”, for which the “transcriptional activation domain activity” value is 30500.

Regarding “KGKGRRRGRGRGRGRGRGREGKGKGREGEGKGKGKEKGKGKGKGKGKGKGKGR”, the “transcriptional activation domain activity” value stood at 28000.

As to “MPGVTGHHLTSWYWLSFIFIFLFYFALLVVFIWVIFSYLFTHLIRFGHAVVVS”, the “transcriptional activation domain activity” value amounted to 29000.

“GNESDDESTEEEKEVKRKKKKKVAKKLPKKKAKKAAVKAKSKKSKKADSSDES”: the “transcriptional activation domain activity” value is 31000.

On to “RRVTGKVLLLVWKLGVRPRLNVFEGVVHRLAVAGCFSQIPPAVALCRRILNRI”, for which the “transcriptional activation domain activity” value was found to be 59000.

Values taken from the supplement of paper PMC12636428.
